Test results taken from patent US20240383985A1 (QURE BIOTECHNOLOGY SHANGHAI, published 2024).

B1: CD33/CD16A/IL-15 trifunctional fusion protein QP42914285 (FC with L234A/L235A mutation for eliminating function) (bispecific antibody)
light: SYVLTQPSSVSVAPGQTATISCGGHNIGSKNVHWYQQRPGQSPVLVIYQDNKRPSGIPERFSGSNSGNTATLTISGTQAMDEADYYCQVWDNYSVLFGGGTKLTVLRTVAAPSVFIFPPSDEQLKSGTASVVCLLNNFYPREAKVQWKVDNALQSGNSQESVTEQDSKDSTYSLSSTLTLSKADYEKHKVYACEVTHQGLSSPVTKSFNRGEC
heavy: QVQLVQSGAEVKKPGESLKVSCKASGYTFTSYYMHWVRQAPGQGLEWMGIINPSGGSTSYAQKFQGRVTMTRDTSTSTVYMELSSLRSEDTAVYYCARGSAYYYDFADYWGQGTLVTVSSASTKGPSVFPLAPSSKSTSGGTAALGCLVKDYFPEPVTVSWNSGALTSGVHTFPAVLQSSGLYSLSSVVTVPSSSLGTQTYICNVNHKPSNTKVDKKVEPKSCDKTHTCPPCPAPEAAGGPSVFLFPPKPKDTLMISRTPEVTCVVVDVSHEDPEVKFNWYVDGVEVHNAKTKPREEQYNSTYRVVSVLTVLHQDWLNGKEYKCKVSNKALPAPIEKTISKAKGQPREPQVYTLPPSREEMTKNQVSLSCAVKGFYPSDIAVEWESNGQPENNYKTTPPVLDSDGSFFLVSKLTVDKSRWQQGNVFSCSVMHEALHNRYTQKSLSLSPGKGGSHHHHHH
chain 1: not shown
chain 2: not shown
notes: Four-chain heterodimer: anti-CD16A Fab arm and anti-CD33 Fv-IL-15/IL-15Ra arm
B2: CD33 antibody IgG1 wt subtype QP41154116 (antibody, V domains shown)
VH: QVQLVQSGAEVKKPGESVKVSCKASGYTFTNYGMNWVKQAPGQGLEWMGWINTYTGEPTYADKFQGRVTMTTDTSTSTAYMEIRNLGGDDTAVYYCARWSWSDGYYVYFDYWGQGTSVTVSS
VL: DIVMTQSPDSLTVSLGERTTINCKSSQSVLDSSTNKNSLAWYQQKPGQPPKLLLSWASTRESGIPDRFSGSGSGTDFTLTIDSPQPEDSATYYCQQSAHFPITFGQGTRLEIKR
notes: IgG1 wild-type control antibody; also called antiCD33 antibody
B3: CD33/CD16A/IL-15 trifunctional fusion protein QP743745 (FC wild-type) (bispecific antibody)
chain 1: not shown
chain 2: not shown
light: DIVMTQSPDSLTVSLGERTTINCKSSQSVLDSSTNKNSLAWYQQKPGQPPKLLLSWASTRESGIPDRFSGSGSGTDFTLTIDSPQPEDSATYYCQQSAHFPITFGQGTRLEIKRTVAAPSVFIFPPSDEQLKSGTASVVCLLNNFYPREAKVQWKVDNALQSGNSQESVTEQDSKDSTYSLSSTLTLSKADYEKHKVYACEVTHQGLSSPVTKSFNRGEC
heavy: QVQLVQSGAEVKKPGESVKVSCKASGYTFTNYGMNWVKQAPGQGLEWMGWINTYTGEPTYADKFQGRVTMTTDTSTSTAYMEIRNLGGDDTAVYYCARWSWSDGYYVYFDYWGQGTSVTVSSASTKGPSVFPLAPSSKSTSGGTAALGCLVKDYFPEPVTVSWNSGALTSGVHTFPAVLQSSGLYSLSSVVTVPSSSLGTQTYICNVNHKPSNTKVDKKVEPKSCDKTHTCPPCPAPELLGGPSVFLFPPKPKDTLMISRTPEVTCVVVDVSHEDPEVKFNWYVDGVEVHNAKTKPREEQYNSTYRVVSVLTVLHQDWLNGKEYKCKVSNKALPAPIEKTISKAKGQPREPQVYTLPPSREEMTKNQVSLSCAVKGFYPSDIAVEWESNGQPENNYKTTPPVLDSDGSFFLVSKLTVDKSRWQQGNVFSCSVMHEALHNRYTQKSLSLSPGK
B4: CD33/CD16A bispecific antibody QP4115777778 (FC wild-type) (bispecific antibody, human IgG1, kappa)
chain: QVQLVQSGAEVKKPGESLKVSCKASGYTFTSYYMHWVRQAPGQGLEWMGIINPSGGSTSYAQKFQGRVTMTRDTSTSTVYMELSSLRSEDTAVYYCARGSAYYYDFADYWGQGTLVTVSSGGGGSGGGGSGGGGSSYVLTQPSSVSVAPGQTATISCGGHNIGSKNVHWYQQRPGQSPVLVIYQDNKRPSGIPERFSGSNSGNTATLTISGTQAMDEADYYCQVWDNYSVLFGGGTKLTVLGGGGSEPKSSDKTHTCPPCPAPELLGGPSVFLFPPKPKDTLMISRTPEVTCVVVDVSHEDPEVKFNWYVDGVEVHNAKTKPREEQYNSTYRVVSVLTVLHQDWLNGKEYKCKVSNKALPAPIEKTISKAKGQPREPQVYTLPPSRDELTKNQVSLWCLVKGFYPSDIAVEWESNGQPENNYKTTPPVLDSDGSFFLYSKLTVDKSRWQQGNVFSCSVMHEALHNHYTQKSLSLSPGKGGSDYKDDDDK
heavy: QVQLVQSGAEVKKPGESVKVSCKASGYTFTNYGMNWVKQAPGQGLEWMGWINTYTGEPTYADKFQGRVTMTTDTSTSTAYMEIRNLGGDDTAVYYCARWSWSDGYYVYFDYWGQGTSVTVSSASTKGPSVFPLAPSSKSTSGGTAALGCLVKDYFPEPVTVSWNSGALTSGVHTFPAVLQSSGLYSLSSVVTVPSSSLGTQTYICNVNHKPSNTKVDKKVEPKSCDKTHTCPPCPAPELLGGPSVFLFPPKPKDTLMISRTPEVTCVVVDVSHEDPEVKFNWYVDGVEVHNAKTKPREEQYNSTYRVVSVLTVLHQDWLNGKEYKCKVSNKALPAPIEKTISKAKGQPREPQVYTLPPSREEMTKNQVSLSCAVKGFYPSDIAVEWESNGQPENNYKTTPPVLDSDGSFFLVSKLTVDKSRWQQGNVFSCSVMHEALHNRYTQKSLSLSPGKGGSHHHHHH
light: DIVMTQSPDSLTVSLGERTTINCKSSQSVLDSSTNKNSLAWYQQKPGQPPKLLLSWASTRESGIPDRFSGSGSGTDFTLTIDSPQPEDSATYYCQQSAHFPITFGQGTRLEIKRTVAAPSVFIFPPSDEQLKSGTASVVCLLNNFYPREAKVQWKVDNALQSGNSQESVTEQDSKDSTYSLSSTLTLSKADYEKHKVYACEVTHQGLSSPVTKSFNRGEC
notes: also called QP411577778; CD16A/CD33 bispecific antibody
B5: CD33/CD16A/IL-15 trifunctional fusion protein QP43394340 (FC with L234A/L235A mutation for eliminating function) (bispecific antibody)
chain 1: not shown
chain 2: not shown
light: DIVMTQSPDSLTVSLGERTTINCKSSQSVLDSSTNKNSLAWYQQKPGQPPKLLLSWASTRESGIPDRFSGSGSGTDFTLTIDSPQPEDSATYYCQQSAHFPITFGQGTRLEIKRTVAAPSVFIFPPSDEQLKSGTASVVCLLNNFYPREAKVQWKVDNALQSGNSQESVTEQDSKDSTYSLSSTLTLSKADYEKHKVYACEVTHQGLSSPVTKSFNRGEC
heavy: QVQLVQSGAEVKKPGESVKVSCKASGYTFTNYGMNWVKQAPGQGLEWMGWINTYTGEPTYADKFQGRVTMTTDTSTSTAYMEIRNLGGDDTAVYYCARWSWSDGYYVYFDYWGQGTSVTVSSASTKGPSVFPLAPSSKSTSGGTAALGCLVKDYFPEPVTVSWNSGALTSGVHTFPAVLQSSGLYSLSSVVTVPSSSLGTQTYICNVNHKPSNTKVDKKVEPKSCDKTHTCPPCPAPEAAGGPSVFLFPPKPKDTLMISRTPEVTCVVVDVSHEDPEVKFNWYVDGVEVHNAKTKPREEQYNSTYRVVSVLTVLHQDWLNGKEYKCKVSNKALPAPIEKTISKAKGQPREPQVYTLPPSREEMTKNQVSLSCAVKGFYPSDIAVEWESNGQPENNYKTTPPVLDSDGSFFLVSKLTVDKSRWQQGNVFSCSVMHEALHNRYTQKSLSLSPGK
notes: Four-chain heterodimer, hIgG1 Fc LALA; plasmid names mention Flag and His tags

molecular target: T1, CD33 naturally expressed on HL60 cells (human, UniProt P20138 18-364); assay: flow cytometry on HL60 cells, PE-anti human Fc detection
T1 construct: whole, on cells
Experimental: Experimental method: HL60 cells were cultured in a 5% CO₂ incubator at 37° C. After trypsin digestion, cells were collected and inoculated into 96-well plates at 100,000 cells per well. Then the plate was subjected to blocking on ice for 1 hour with 2% FBS/PBS. The cells were incubated with different concentrations of trifunctional proteins and control protein on ice for 1 hour, washed with PBS for 3 times, and incubated with PE-anti human Fc (1:200 dilution). The cells were washed with PBS for 3 times, and resuspended with 200 μl PBS. The mean fluorescence value was read by FACS and Graphpad prism software was used to analyze the results.

T1 sequence (P20138 18-364): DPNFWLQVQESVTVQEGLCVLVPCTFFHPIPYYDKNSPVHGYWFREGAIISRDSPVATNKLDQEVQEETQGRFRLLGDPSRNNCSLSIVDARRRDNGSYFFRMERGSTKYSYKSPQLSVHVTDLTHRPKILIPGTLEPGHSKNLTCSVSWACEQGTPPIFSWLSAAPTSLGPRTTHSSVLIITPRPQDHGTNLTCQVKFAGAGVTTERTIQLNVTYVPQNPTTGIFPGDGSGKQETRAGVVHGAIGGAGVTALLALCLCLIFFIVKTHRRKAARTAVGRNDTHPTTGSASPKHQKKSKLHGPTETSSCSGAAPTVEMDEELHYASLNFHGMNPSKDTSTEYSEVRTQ

Binding result, binds:
B1
B2
B3
B4
B5
